Assay results as given in IntAct's records for PubMed 18775314.

B1: Vesicle-associated membrane protein 7 (Homo sapiens), P51809 (parent)
chain: MAILFAVVARGTTILAKHAWCGGNFLEVTEQILAKIPSENNKLTYSHGNYLFHYICQDRIVYLCITDDDFERSRAFNFLNEIKKRFQTTYGSRAQTALPYAMNSEFSSVLAAQLKHHSENKGLDKVMETQAQVDELKGIMVRNIDLVAQRGERLELLIDKTENLVDSSVTFKTTSRNLARAMCMKNLKLTIIIIIVSIVFIYIIVSPLCGGFTWPSCVKK
partner: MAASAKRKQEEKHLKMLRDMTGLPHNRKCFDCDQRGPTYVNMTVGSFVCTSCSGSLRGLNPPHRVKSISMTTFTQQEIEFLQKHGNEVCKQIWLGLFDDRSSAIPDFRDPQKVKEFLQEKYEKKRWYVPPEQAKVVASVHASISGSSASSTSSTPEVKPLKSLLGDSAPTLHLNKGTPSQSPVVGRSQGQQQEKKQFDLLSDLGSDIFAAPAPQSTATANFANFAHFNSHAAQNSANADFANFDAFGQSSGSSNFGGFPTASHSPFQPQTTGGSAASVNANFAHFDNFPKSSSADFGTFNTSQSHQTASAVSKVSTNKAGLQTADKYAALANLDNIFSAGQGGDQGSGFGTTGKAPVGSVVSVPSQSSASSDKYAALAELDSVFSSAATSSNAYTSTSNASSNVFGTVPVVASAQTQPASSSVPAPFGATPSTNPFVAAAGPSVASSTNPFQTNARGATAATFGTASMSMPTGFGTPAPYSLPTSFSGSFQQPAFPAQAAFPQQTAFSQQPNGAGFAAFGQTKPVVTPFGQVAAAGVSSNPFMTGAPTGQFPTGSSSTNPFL
B2: Arf-GAP domain and FG repeat-containing protein 1 (Homo sapiens), P52594 (parent)
chain: B1 partner

Variants of: B1
Conditions: with agfg1_human AGFG1, P52594

Variant | effect of a mutation on the interaction
L43S;Y45S | decreasing interaction

Variants of: B1
Conditions: with agfg1_human AGFG1, P52594
Remark: another data set of the same source

Variant | effect of a mutation on the interaction
L43S;Y45S | decreasing interaction

Variants of: B2
Conditions: with vamp7_human VAMP7, P51809

Variant | effect of a mutation on the interaction
L171S;L173S | decreasing interaction
L163S;L164S | decreasing interaction
L160S;L163S | decreasing interaction

Variants of: B2
Conditions: with vamp7_human VAMP7, P51809
Remark: another data set of the same source

Variant | effect of a mutation on the interaction
L163S;L164S | decreasing interaction
